This assay deals with T1, human HVEM Fc (human, UniProt Q92956 39-202).
T1 construct: also called wild-type HVEM-Fc; not shown: human IgG1 Fc
T1 sequence: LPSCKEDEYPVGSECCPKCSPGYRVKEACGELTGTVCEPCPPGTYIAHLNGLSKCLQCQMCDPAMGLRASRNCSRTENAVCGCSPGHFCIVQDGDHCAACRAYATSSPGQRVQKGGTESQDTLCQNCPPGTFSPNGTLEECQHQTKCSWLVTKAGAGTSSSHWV
The experiment in a line: flow cytometry on EL4 cells expressing human CD160.

Results on one molecule are retold here after patent US20210122788A1 (SANFORD BURNHAM PREBYS MEDICAL DISCOVERY INSTITUTE, published 2021).

B1: human CD160 on cells (receptor)
chain: GCINITSSASQEGTRLNLICTVWHKKEEAEGFVVFLCKDRSGDCSPETSLKQLRLKRDPGIDGVGEISSQLMFTISQVTPLHSGTYQCCARSQKSGIRLQGHFFSILFTETGNYTVTGLKQRQHLEFSHNEGTLS
notes: whole, on cells; Transduced into EL4 or 293T cells; endogenous on NK92 and blood NK cells in the functional rows
On to B1, for which the binding result is given as “binds”.
